How the values were obtained:
[1] = molecular target: recombinant RHOA wild type (human, UniProt P61586 1-193); assay: other fluorescence titration
[2] = molecular target: recombinant RHOA Y42C (human, UniProt P61586 1-193, Y42C); assay: other fluorescence titration
Chain of recombinant RHOA Y42C (P61586 whole entry Y42C): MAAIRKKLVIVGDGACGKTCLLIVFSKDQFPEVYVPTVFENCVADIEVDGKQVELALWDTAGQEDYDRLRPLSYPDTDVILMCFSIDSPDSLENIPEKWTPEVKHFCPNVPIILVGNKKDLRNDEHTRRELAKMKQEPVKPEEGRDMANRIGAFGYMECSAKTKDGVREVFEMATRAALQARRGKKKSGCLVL

Chain of recombinant RHOA wild type (P61586 whole entry): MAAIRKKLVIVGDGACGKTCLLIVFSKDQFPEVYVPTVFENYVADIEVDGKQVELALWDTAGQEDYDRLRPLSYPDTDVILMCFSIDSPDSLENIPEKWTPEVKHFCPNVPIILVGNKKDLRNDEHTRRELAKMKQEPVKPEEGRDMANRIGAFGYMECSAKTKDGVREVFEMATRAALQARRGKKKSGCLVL

| Kd [1] [nM] | fold change of binding against RHOA WT [2] [fold] | Binder |
| --- | --- | --- |
| 380 ± 30 | 12 | ROCK RHOA-GTP binding domain (RBD) (domain or fragment) TKDIEILRRENEELTEKMKKAEEEYKLEKEEEISNLKAAFEKNINTERTLKTQAVNKLAEIMNRKDF |
| 460 ± 60 |  | mDia RHOA-GTP binding domain (RBD) (domain or fragment) LQDISDEQVLVLFEQMLVDMNLNEEKQQPLREKDIVIKREMVSQYLHTSKAGMNQKESSRSAMMYIQELRSGLRDMHLLSCLESLRVSLNNNPVSWVQTFGAEGLASLLDILKRLHDEKEETSGNYDSRNQHEIIRCLKAFMNNKFGIKTMLETEEGILLLVRAMDPAVPNMMIDAAKLLSALCILPQPEDMNERVLEAMTERAEMDEVERFQPLLDGLKSGTSIALKVGCLQLINALITPAEELDFRVHIRSELMRLGLHQVLQELREIENEDMKVQLCVFDEQGDEDFFDLKGRLDDIRMEMDDFGEVFQIILNTVKDSKAEPHFLSILQHLLLVRNDYEARPQYYKLIEECVSQIVLHKNGTD |
| 500 ± 40 |  | Rhotekin RHOA-GTP binding domain (RBD) (domain or fragment, UniProt Q8C6B2 17-98, looked up) ALEMEFKRGRFRLSFFSESPEDTELQRKLDHEIRMRDGACKLLAACSQREQALEATKSLLVCNSRILSYMGELQRRKEAQVL |

Reference: article PMC7007383 (Cancer discovery, 2019)
